Reference: publication PMC4333420, “REV7 is essential for DNA damage tolerance via two REV3L binding sites in mammalian DNA polymerase ζ” (Nucleic Acids Research, 2015)

Biological target: T1, His-REV7 (human, UniProt Q9UI95 1-211)
T1 construct: REV7 (MAD2L2), human; amplified from REV7 cDNA with primers from the start codon to the stop codon, cloned into pETDuet-1; Cloned into pETDuet-1 (SalI-NotI); also called His-REV7 fusion protein; source: E. coli, purified
Experiment: pull-down; GST-fusion REV3L fragment, His-REV7 and Glutathione-Sepharose 4B beads, 4°C for 4 h in 500 μl of 0.1B; blot with anti-His and anti-GST
Conditions: both partners purified

T1 sequence (Q9UI95 whole entry, the tested form may be a part): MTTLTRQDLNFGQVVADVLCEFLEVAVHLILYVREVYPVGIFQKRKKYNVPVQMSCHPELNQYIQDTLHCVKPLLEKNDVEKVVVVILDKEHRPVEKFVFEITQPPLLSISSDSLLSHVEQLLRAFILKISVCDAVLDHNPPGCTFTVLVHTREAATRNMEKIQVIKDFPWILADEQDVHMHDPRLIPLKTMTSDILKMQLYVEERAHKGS

B1: GST-REV3L 1974–2025 (domain or fragment, human, UniProt O60673 1974-2025, looked up)
chain: GVVNKGSSNSPKMVEDKKIVIMPCKCAPSRQLVQVWLQAKEEYERSKKLPKT
notes: Cloned into pGEX6P-1 (GE Healthcare); source: E. coli, purified
  binding result: binds

B2: GST-REV3L 1847–1898 (domain or fragment, human, UniProt O60673 1847-1898, looked up)
chain: MLTPTPDSSPRSTSSPSQSKNGSFTPRTANILKPLMSPPSREEIMATLLDHD
notes: Cloned into pGEX6P-1 (GE Healthcare); also called positive control; source: E. coli, purified
  binding result: binds
